The chains are these.
B1: CBFβ alone (human core-binding factor β subunit isoform 2) (other)
chain: MGHHHHHHLEVLFQGPPRVVPDQRSKFENEEFFRKLSRECEIKYTGFRDRPHEERQARFQNACRDGRSEIAFVATGTNLSLQFFPASWQGEQRQTPSREYVDLEREAGKVYLKAPMILNGVCVIWKGWIDLQRLDGMGCLEFDEERAQQEDALAQQAFEEARRRTREFEDRDRSHREEMEVRVSQLLAVTGKKTTRP
B2: Cul5(N), human Cullin5 residues 2-384 with V341R and L345D mutations (post 3C cleavage) (other)
chain: GPMHMGGSTSNLLKNKGSLQFEDKWDFMRPIVLKLLRQESVTKQQWFDLFSDVHAVCLWDDKGPAKIHQALKEDILEFIKQAQARVLSHQDDTALLKAYIVEWRKFFTQCDILPKPFCQLEITLMGKQGSNKKSNVEDSIVRKLMLDTWNESIFSNIKNRLQDSAMKLVHAERLGEAFDSQLVIGVRESYVNLCSNPEDKLQIYRDNFEKAYLDSTERFYRTQAPSYLQQNGVQNYMKYADAKLKEEEKRALRYLETRRECNSVEALMECCVNALVTSFKETILAECQGMIKRNETEKLHLMFSLMDKVPNGIEPMLKDLEEHIISAGLADMVAAAETITTDSEKYREQLDTLFNRFSKLVKEAFQDDPRFLTARDKAYKAVVNDATIFK
notes: also called Cul5(2-384)

The target in test [1] is T1, VifC/EloB/C ternary complex (HIV-1 HXB2 Vif(95-192) / ElonginB 1-118 / ElonginC 17-112) (HIV-1 HXB2; human, UniProt P69720 95-192; Q15370 2-118; Q15369 18-112). As to the kind of experiment: ITC at 303.15 K in ITC Buffer A, CBFβ titrated to VifC/EloB/C.
T1 sequence (P69720 95-192, tags left off, chain 1 of 3): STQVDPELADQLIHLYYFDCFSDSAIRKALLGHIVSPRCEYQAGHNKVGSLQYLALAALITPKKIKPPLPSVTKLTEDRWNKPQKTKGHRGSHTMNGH
T1 sequence (Q15370 2-118, tags left off, chain 2 of 3): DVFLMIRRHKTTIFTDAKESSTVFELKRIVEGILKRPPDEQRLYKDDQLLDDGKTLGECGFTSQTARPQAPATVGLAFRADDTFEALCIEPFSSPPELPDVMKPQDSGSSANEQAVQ
T1 sequence (Q15369 18-112, tags left off, chain 3 of 3): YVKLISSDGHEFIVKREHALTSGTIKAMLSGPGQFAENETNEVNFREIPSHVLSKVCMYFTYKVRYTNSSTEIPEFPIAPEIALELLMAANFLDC
Test [2] has as its target T2, Vif/EloB/C/CBFβ quaternary complex (full-length HIV-1 HXB2 Vif(1-192) / ElonginB 1-118 / ElonginC 17 (HIV-1 HXB2; human, UniProt P69720 2-192; Q15370 2-118; P83940 18-112; Q13951 2-182).
Test [3] concerns the target T1, VifC/EloB/C ternary complex (HIV-1 HXB2 …).
Test [4] concerns the target T2, Vif/EloB/C/CBFβ quaternary complex …. The source holds these as a separate data set.
Test [5] shares this target. This is another data set of the same source.
Test [6] addresses T1, VifC/EloB/C ternary complex (HIV-1 HXB2 …). The source holds these as a separate data set.
The target is the same in test [7]. This is another data set of the same source.
Test [8] shares this target. This is another data set of the same source.
The target is the same in test [9]. The source holds these as a separate data set.
Test [10] addresses T2, Vif/EloB/C/CBFβ quaternary complex …. The source holds these as a separate data set.
Test [11] has the same target. This is another data set of the same source.
The target is the same in test [12]. The source holds these as a separate data set.
Test [13] addresses T1, VifC/EloB/C ternary complex (HIV-1 HXB2 …). The test can be described thus: ITC at 30 °C, HEPES (ITC buffer A).
Test [14] has as its target T2, Vif/EloB/C/CBFβ quaternary complex …. As to the kind of experiment: ITC at 30 °C, HEPES (ITC buffer A).
The target in test [15] is T1, VifC/EloB/C ternary complex (HIV-1 HXB2 …). The test can be described thus: ITC at 30 °C, phosphate (ITC buffer B).
Test [16] deals with T2, Vif/EloB/C/CBFβ quaternary complex …. The test can be described thus: ITC at 30 °C, phosphate (ITC buffer B).
In test [17] the target is T1, VifC/EloB/C ternary complex (HIV-1 HXB2 …). As to the kind of experiment: ITC at 30 °C, difference of ΔH between ITC buffers A and B.
The target in test [18] is T2, Vif/EloB/C/CBFβ quaternary complex …. The description is as above.
In test [19] the target is B1. As to the kind of experiment: ITC at 303.15 K in ITC Buffer A, Cul5(N) titrated to CBFβ alone.
Test [20] deals with T1, VifC/EloB/C ternary complex (HIV-1 HXB2 …). As to the kind of experiment: ITC at 303 K, Cul5(N) in syringe, complex in cell, ITC buffer A.
Test [21] has as its target T2, Vif/EloB/C/CBFβ quaternary complex …. The test is described as above.

Like-named read-outs stand apart in the source and are kept apart here.

T2 sequence (P69720 2-192, tags left off, chain 1 of 3): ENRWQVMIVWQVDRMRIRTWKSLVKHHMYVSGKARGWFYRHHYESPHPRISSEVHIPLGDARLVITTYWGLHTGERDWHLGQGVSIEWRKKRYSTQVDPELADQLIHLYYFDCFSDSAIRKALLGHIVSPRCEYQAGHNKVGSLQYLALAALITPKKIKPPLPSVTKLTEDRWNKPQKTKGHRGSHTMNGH
T2 sequence (Q15370 2-118, tags left off, chain 2 of 3): as the sequence (Q15370 2-118, tags left off, chain 2 of 3) above
T2 sequence (P83940 18-112, tags left off, chain 3 of 3): as the sequence (Q15369 18-112, tags left off, chain 3 of 3) above

Turning to B1, the binding result in [1] was “no binding”.

Broadly, the Kd is the constant that tells how readily two partners part at equilibrium. Low values mean higher affinity, high ones lower affinity. Regarding B2, the Kd was 5 nM in [2] and 327 nM in test [20]. Further, the N was determined as 1.03 in [3]; 1.01 in [4]; 1.01 in test [5]; 1.03 in test [6]; 0.887 in test [7]; 0.952 in test [8]. In addition, the N in test [9] was 0.948; in test [11], 0.943; in [12], 1. Moreover, the ΔH in test [3] was -5250; in test [4] it was -8350; in test [5], -8350; in test [6], -5250; in test [7], -2250; in test [8], -3750. Besides, the ΔH in test [9] was -6430; in test [10], -3970; in test [11], -6310; in [12] it was -10100; in test [13], -5.2 kcal/mol; in test [14], -9.2 kcal/mol. The ΔH in test [15] is -4.4 kcal/mol; in [16], -7.5 kcal/mol; in [20] it was -5.2 kcal/mol; in test [21], -8.8 kcal/mol. The ΔS in test [3] turned out to be 12.4; in [4] it was 11.2; in [5], 11.2; in test [6], 12.4; in test [7] it was 22.9; in test [8], 17.4. Moreover, the ΔS in test [9] is 7.96; in test [10], 21.7; in test [11], 23; in [12], 4.56. In addition, the “ΔΔH (HEPES against phosphate buffer)” value came out at 0.8 kcal/mol in test [17] and 1.7 kcal/mol in [18]. Further, the binding result in [19] is “no binding”. Moreover, the results for the “-TΔS” value in test [20] and in test [21] were -3.8 kcal/mol and -2.8 kcal/mol, respectively. For the same molecule, the ΔG was -9 kcal/mol in [20] and -11.5 kcal/mol in test [21].
